In patent US20230357348A1 (AstraZeneca / MedImmune, published 2023):
Starred links: 1 amine or outer side, 2 acyl side, 3 side chain; linkers in the order of their positions; H or OH if unused. Non-standard residues stand in square brackets, D forms with d. Groups on a side chain read outwards from the residue. No end group written: not given here. *: point of attachment. C18 diacid = O=C(O)CCCCCCCCCCCCCCCCC(=O)*; γGlu = O=C(O)[C@H](CCC(=O)[*:2])N[*:1]; αMeF = C[C@](N)(Cc1ccccc1)C(=O)O; AEEA = NCCOCCOCC(=O)O; Aib = CC(C)(N)C(=O)O

How the values were obtained:
Experiment in all cases: cell-based or functional assay
[1] = target: human GLP-1 receptor (hGLP-1R) (human, UniProt P43220 24-463)
[2] = target: human glucagon receptor (hGCGR) (human, UniProt P47871 26-477)
Target sequence in this assay (P47871 26-477): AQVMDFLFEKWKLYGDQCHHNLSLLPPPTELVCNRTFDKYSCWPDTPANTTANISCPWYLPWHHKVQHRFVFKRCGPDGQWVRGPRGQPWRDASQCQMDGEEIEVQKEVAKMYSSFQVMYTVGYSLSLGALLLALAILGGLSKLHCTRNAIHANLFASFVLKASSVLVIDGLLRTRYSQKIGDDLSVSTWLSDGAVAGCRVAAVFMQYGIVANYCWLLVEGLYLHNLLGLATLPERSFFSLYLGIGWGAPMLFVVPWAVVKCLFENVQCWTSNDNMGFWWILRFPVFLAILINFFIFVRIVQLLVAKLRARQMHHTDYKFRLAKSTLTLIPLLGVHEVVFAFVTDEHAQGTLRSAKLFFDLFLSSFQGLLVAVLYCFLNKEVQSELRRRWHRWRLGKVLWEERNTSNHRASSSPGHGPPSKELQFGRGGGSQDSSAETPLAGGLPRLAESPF

[3] = target: human GLP-1 receptor (hGLP-1R) (human, UniProt P43220 24-463); remark: listed apart in the source
[4] = target: human glucagon receptor (hGCGR) (human, UniProt P47871 26-477); remark: listed apart in the source
Target sequence in this assay (P47871 26-477): as above

hGLP-1R EC50 (pM) [1] [pM] | hGluc-R EC50 (pM) [2] [pM] | hGLP-1R EC50 (pM) [3] [pM] | hGluc-R EC50 (pM) [4] [pM] | Binder
76.1 | 194 |  |  | H[Aib]QGTFTSDVSK[αMeF]LDSK([AEEA-AEEA-γGlu-C18 diacid])RAQDFVRWLL[Aib]TE-OH (N-terminus assumed; SMILES CC(C)C[C@H](NC(=O)[C@H](Cc1c[nH]c2ccccc12)NC(=O)[C@H](CCCNC(=N)N)NC(=O)[C@@H](NC(=O)[C@H](Cc1ccccc1)NC(=O)[C@H](CC(=O)O)NC(=O)[C@H](CCC(N)=O)NC(=O)[C@H](C)NC(=O)[C@H](CCCNC(=N)N)NC(=O)[C@H](CCCCNC(=O)COCCOCCNC(=O)COCCOCCNC(=O)CC[C@H](NC(=O)CCCCCCCCCCCCCCCCC(=O)O)C(=O)O)NC(=O)[C@H](CO)NC(=O)[C@H](CC(=O)O)NC(=O)[C@H](CC(C)C)NC(=O)[C@](C)(Cc1ccccc1)NC(=O)[C@H](CCCCN)NC(=O)[C@H](CO)NC(=O)[C@@H](NC(=O)[C@H](CC(=O)O)NC(=O)[C@H](CO)NC(=O)[C@@H](NC(=O)[C@H](Cc1ccccc1)NC(=O)[C@@H](NC(=O)CNC(=O)[C@H](CCC(N)=O)NC(=O)C(C)(C)NC(=O)[C@@H](N)Cc1c[nH]cn1)[C@@H](C)O)[C@@H](C)O)C(C)C)C(C)C)C(=O)N[C@@H](CC(C)C)C(=O)NC(C)(C)C(=O)N[C@H](C(=O)N[C@@H](CCC(=O)O)C(=O)O)[C@@H](C)O) [Peptide 39]
 |  | 22.7 |  | H[Aib]QGTFTSDVSK[αMeF]LDTK([AEEA-AEEA-γGlu-C18 diacid])RAQDFVRWLLE[Aib]G-OH (N-terminus assumed; SMILES CC(C)C[C@H](NC(=O)[C@H](Cc1c[nH]c2ccccc12)NC(=O)[C@H](CCCNC(=N)N)NC(=O)[C@@H](NC(=O)[C@H](Cc1ccccc1)NC(=O)[C@H](CC(=O)O)NC(=O)[C@H](CCC(N)=O)NC(=O)[C@H](C)NC(=O)[C@H](CCCNC(=N)N)NC(=O)[C@H](CCCCNC(=O)COCCOCCNC(=O)COCCOCCNC(=O)CC[C@H](NC(=O)CCCCCCCCCCCCCCCCC(=O)O)C(=O)O)NC(=O)[C@@H](NC(=O)[C@H](CC(=O)O)NC(=O)[C@H](CC(C)C)NC(=O)[C@](C)(Cc1ccccc1)NC(=O)[C@H](CCCCN)NC(=O)[C@H](CO)NC(=O)[C@@H](NC(=O)[C@H](CC(=O)O)NC(=O)[C@H](CO)NC(=O)[C@@H](NC(=O)[C@H](Cc1ccccc1)NC(=O)[C@@H](NC(=O)CNC(=O)[C@H](CCC(N)=O)NC(=O)C(C)(C)NC(=O)[C@@H](N)Cc1c[nH]cn1)[C@@H](C)O)[C@@H](C)O)C(C)C)[C@@H](C)O)C(C)C)C(=O)N[C@@H](CC(C)C)C(=O)N[C@@H](CCC(=O)O)C(=O)NC(C)(C)C(=O)NCC(=O)O) [Peptide 140]
43.1 | 278 |  |  | H[Aib]QGTFTSDVSK[αMeF]LDSK([AEEA-AEEA-γGlu-C18 diacid])RARDFVQWLL[Aib]T-OH (N-terminus assumed; SMILES CC(C)C[C@H](NC(=O)[C@H](Cc1c[nH]c2ccccc12)NC(=O)[C@H](CCC(N)=O)NC(=O)[C@@H](NC(=O)[C@H](Cc1ccccc1)NC(=O)[C@H](CC(=O)O)NC(=O)[C@H](CCCNC(=N)N)NC(=O)[C@H](C)NC(=O)[C@H](CCCNC(=N)N)NC(=O)[C@H](CCCCNC(=O)COCCOCCNC(=O)COCCOCCNC(=O)CC[C@H](NC(=O)CCCCCCCCCCCCCCCCC(=O)O)C(=O)O)NC(=O)[C@H](CO)NC(=O)[C@H](CC(=O)O)NC(=O)[C@H](CC(C)C)NC(=O)[C@](C)(Cc1ccccc1)NC(=O)[C@H](CCCCN)NC(=O)[C@H](CO)NC(=O)[C@@H](NC(=O)[C@H](CC(=O)O)NC(=O)[C@H](CO)NC(=O)[C@@H](NC(=O)[C@H](Cc1ccccc1)NC(=O)[C@@H](NC(=O)CNC(=O)[C@H](CCC(N)=O)NC(=O)C(C)(C)NC(=O)[C@@H](N)Cc1c[nH]cn1)[C@@H](C)O)[C@@H](C)O)C(C)C)C(C)C)C(=O)N[C@@H](CC(C)C)C(=O)NC(C)(C)C(=O)N[C@H](C(=O)O)[C@@H](C)O) [Peptide 36]
75.6 | 441 |  |  | H[Aib]QGTFTSDVSK[αMeF]LDSK([AEEA-AEEA-γGlu-C18 diacid])RAQDFVEWLL[Aib]T-OH (N-terminus assumed; SMILES CC(C)C[C@H](NC(=O)[C@H](Cc1c[nH]c2ccccc12)NC(=O)[C@H](CCC(=O)O)NC(=O)[C@@H](NC(=O)[C@H](Cc1ccccc1)NC(=O)[C@H](CC(=O)O)NC(=O)[C@H](CCC(N)=O)NC(=O)[C@H](C)NC(=O)[C@H](CCCNC(=N)N)NC(=O)[C@H](CCCCNC(=O)COCCOCCNC(=O)COCCOCCNC(=O)CC[C@H](NC(=O)CCCCCCCCCCCCCCCCC(=O)O)C(=O)O)NC(=O)[C@H](CO)NC(=O)[C@H](CC(=O)O)NC(=O)[C@H](CC(C)C)NC(=O)[C@](C)(Cc1ccccc1)NC(=O)[C@H](CCCCN)NC(=O)[C@H](CO)NC(=O)[C@@H](NC(=O)[C@H](CC(=O)O)NC(=O)[C@H](CO)NC(=O)[C@@H](NC(=O)[C@H](Cc1ccccc1)NC(=O)[C@@H](NC(=O)CNC(=O)[C@H](CCC(N)=O)NC(=O)C(C)(C)NC(=O)[C@@H](N)Cc1c[nH]cn1)[C@@H](C)O)[C@@H](C)O)C(C)C)C(C)C)C(=O)N[C@@H](CC(C)C)C(=O)NC(C)(C)C(=O)N[C@H](C(=O)O)[C@@H](C)O) [Peptide 38]
68.6 | 2750 |  |  | H[Aib]QGTFTSDVSK[αMeF]LDSK([AEEA-AEEA-γGlu-C18 diacid])RAEDFVQWLL[Aib]T-OH (N-terminus assumed; SMILES CC(C)C[C@H](NC(=O)[C@H](Cc1c[nH]c2ccccc12)NC(=O)[C@H](CCC(N)=O)NC(=O)[C@@H](NC(=O)[C@H](Cc1ccccc1)NC(=O)[C@H](CC(=O)O)NC(=O)[C@H](CCC(=O)O)NC(=O)[C@H](C)NC(=O)[C@H](CCCNC(=N)N)NC(=O)[C@H](CCCCNC(=O)COCCOCCNC(=O)COCCOCCNC(=O)CC[C@H](NC(=O)CCCCCCCCCCCCCCCCC(=O)O)C(=O)O)NC(=O)[C@H](CO)NC(=O)[C@H](CC(=O)O)NC(=O)[C@H](CC(C)C)NC(=O)[C@](C)(Cc1ccccc1)NC(=O)[C@H](CCCCN)NC(=O)[C@H](CO)NC(=O)[C@@H](NC(=O)[C@H](CC(=O)O)NC(=O)[C@H](CO)NC(=O)[C@@H](NC(=O)[C@H](Cc1ccccc1)NC(=O)[C@@H](NC(=O)CNC(=O)[C@H](CCC(N)=O)NC(=O)C(C)(C)NC(=O)[C@@H](N)Cc1c[nH]cn1)[C@@H](C)O)[C@@H](C)O)C(C)C)C(C)C)C(=O)N[C@@H](CC(C)C)C(=O)NC(C)(C)C(=O)N[C@H](C(=O)O)[C@@H](C)O) [Peptide 37]
448 | 886 |  |  | H[Aib]QGTFTSDVSK[αMeF]LDSK([AEEA-AEEA-γGlu-C18 diacid])RARDFVAWLL[Aib]TE-OH (N-terminus assumed; SMILES CC(C)C[C@H](NC(=O)[C@H](Cc1c[nH]c2ccccc12)NC(=O)[C@H](C)NC(=O)[C@@H](NC(=O)[C@H](Cc1ccccc1)NC(=O)[C@H](CC(=O)O)NC(=O)[C@H](CCCNC(=N)N)NC(=O)[C@H](C)NC(=O)[C@H](CCCNC(=N)N)NC(=O)[C@H](CCCCNC(=O)COCCOCCNC(=O)COCCOCCNC(=O)CC[C@H](NC(=O)CCCCCCCCCCCCCCCCC(=O)O)C(=O)O)NC(=O)[C@H](CO)NC(=O)[C@H](CC(=O)O)NC(=O)[C@H](CC(C)C)NC(=O)[C@](C)(Cc1ccccc1)NC(=O)[C@H](CCCCN)NC(=O)[C@H](CO)NC(=O)[C@@H](NC(=O)[C@H](CC(=O)O)NC(=O)[C@H](CO)NC(=O)[C@@H](NC(=O)[C@H](Cc1ccccc1)NC(=O)[C@@H](NC(=O)CNC(=O)[C@H](CCC(N)=O)NC(=O)C(C)(C)NC(=O)[C@@H](N)Cc1c[nH]cn1)[C@@H](C)O)[C@@H](C)O)C(C)C)C(C)C)C(=O)N[C@@H](CC(C)C)C(=O)NC(C)(C)C(=O)N[C@H](C(=O)N[C@@H](CCC(=O)O)C(=O)O)[C@@H](C)O) [Peptide 168]
 |  | 240 | 1170 | HSQGS[αMeF]TSDVSK[αMeF]LDSK([AEEA-AEEA-γGlu-C18 diacid])AAQDFVQWIANT-NH2 (N-terminus assumed; SMILES CC[C@H](C)[C@H](NC(=O)[C@H](Cc1c[nH]c2ccccc12)NC(=O)[C@H](CCC(N)=O)NC(=O)[C@@H](NC(=O)[C@H](Cc1ccccc1)NC(=O)[C@H](CC(=O)O)NC(=O)[C@H](CCC(N)=O)NC(=O)[C@H](C)NC(=O)[C@H](C)NC(=O)[C@H](CCCCNC(=O)COCCOCCNC(=O)COCCOCCNC(=O)CC[C@H](NC(=O)CCCCCCCCCCCCCCCCC(=O)O)C(=O)O)NC(=O)[C@H](CO)NC(=O)[C@H](CC(=O)O)NC(=O)[C@H](CC(C)C)NC(=O)[C@](C)(Cc1ccccc1)NC(=O)[C@H](CCCCN)NC(=O)[C@H](CO)NC(=O)[C@@H](NC(=O)[C@H](CC(=O)O)NC(=O)[C@H](CO)NC(=O)[C@@H](NC(=O)[C@](C)(Cc1ccccc1)NC(=O)[C@H](CO)NC(=O)CNC(=O)[C@H](CCC(N)=O)NC(=O)[C@H](CO)NC(=O)[C@@H](N)Cc1c[nH]cn1)[C@@H](C)O)C(C)C)C(C)C)C(=O)N[C@@H](C)C(=O)N[C@@H](CC(N)=O)C(=O)N[C@H](C(N)=O)[C@@H](C)O) [Peptide 4]
